Measured values from PMC10786891, “Massively parallel profiling of RNA-targeting CRISPR-Cas13d”.
Changes are numbered by the printed parent chain. Names and notes keep the numbering of the source.

T1: EsCas13d, nuclease-dead (Eubacterium siraeum, UniProt B0MS50, R295A;H300A;R849A;H854A)
T1 sequence: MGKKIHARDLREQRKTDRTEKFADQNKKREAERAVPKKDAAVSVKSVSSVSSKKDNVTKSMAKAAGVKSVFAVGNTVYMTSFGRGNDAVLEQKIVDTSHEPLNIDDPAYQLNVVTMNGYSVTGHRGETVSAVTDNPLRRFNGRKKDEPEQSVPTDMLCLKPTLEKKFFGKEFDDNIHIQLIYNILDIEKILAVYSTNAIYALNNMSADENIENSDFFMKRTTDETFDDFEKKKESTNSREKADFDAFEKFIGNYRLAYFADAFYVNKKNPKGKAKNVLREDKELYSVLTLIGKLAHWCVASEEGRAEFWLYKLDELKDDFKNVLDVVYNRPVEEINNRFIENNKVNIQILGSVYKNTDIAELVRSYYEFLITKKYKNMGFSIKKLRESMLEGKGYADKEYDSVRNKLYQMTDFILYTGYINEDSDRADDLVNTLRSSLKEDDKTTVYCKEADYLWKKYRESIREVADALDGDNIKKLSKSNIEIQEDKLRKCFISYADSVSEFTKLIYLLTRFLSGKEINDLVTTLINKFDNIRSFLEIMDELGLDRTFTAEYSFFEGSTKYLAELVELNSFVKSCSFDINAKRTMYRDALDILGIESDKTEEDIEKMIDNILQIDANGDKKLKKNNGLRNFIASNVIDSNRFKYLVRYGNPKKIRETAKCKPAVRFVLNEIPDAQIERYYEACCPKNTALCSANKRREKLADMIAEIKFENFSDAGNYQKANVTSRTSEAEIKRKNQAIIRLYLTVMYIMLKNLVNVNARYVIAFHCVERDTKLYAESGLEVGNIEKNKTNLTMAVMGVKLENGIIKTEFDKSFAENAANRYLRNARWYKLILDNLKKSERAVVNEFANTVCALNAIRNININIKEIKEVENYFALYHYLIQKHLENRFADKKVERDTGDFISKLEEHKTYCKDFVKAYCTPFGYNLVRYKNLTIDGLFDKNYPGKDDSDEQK

B1: target 3 C6G,A18G (mixed)
RNA 1: CACCCGUGCAAAAUUGCAGGGGUCUAAAACGACCUGAAUAUUUCAGAUCAAA
RNA 2: GGGAAUGGAUCCACAUCUACGAAUUCGUUUUUGGUCUGAAAUAUUGAGGUCUGCAGAUCGGAAGAGCACACGU
B2: target 3 C6U,U8G (mixed)
RNA 1: B1 RNA 1
RNA 2: B1 RNA 2 with G34A, U44G, G46U
B3: target 3 insA 3' of 10,insU 3' of 3 (mixed)
RNA 1: B1 RNA 1
RNA 2: GGGAAUGGAUCCACAUCUACGAAUUCGUUUUUGAUCUGAAAUAAUUCAGGUUCUGCAGAUCGGAAGAGCACACGU
B4: target 3 C6U,U8C (mixed)
RNA 1: B1 RNA 1
RNA 2: B1 RNA 2 with G34A, U44C, G46U
B5: target 3 C6U,U22A (mixed)
RNA 1: B1 RNA 1
RNA 2: B1 RNA 2 with U30A, G34A, G46U
B6: target 3 G3A (mixed)
RNA 1: B1 RNA 1
RNA 2: B1 RNA 2 with G34A, G46C, G49A
B7: target 3 insA 3' of 22,insU 3' of 16 (mixed)
RNA 1: B1 RNA 1
RNA 2: GGGAAUGGAUCCACAUCUACGAAUUCGUUUAUUGAUCUUGAAAUAUUCAGGUCUGCAGAUCGGAAGAGCACACGU
B8: target 3 G4A,C6U (mixed)
RNA 1: B1 RNA 1
RNA 2: B1 RNA 2 with G34A, G46U, G48A
B9: target 3 insG 3' of 22,insA 3' of 2 (mixed)
RNA 1: B1 RNA 1
RNA 2: GGGAAUGGAUCCACAUCUACGAAUUCGUUUGUUGAUCUGAAAUAUUCAGGUACUGCAGAUCGGAAGAGCACACGU
B10: target 3 insG 3' of 5,insG 3' of 2 (mixed)
RNA 1: B1 RNA 1
RNA 2: B3 RNA 2 with A44U, U46C, C47A, A48G, U52G
B11: target 3 G3A,G4U (mixed)
RNA 1: B1 RNA 1
RNA 2: B1 RNA 2 with G34A, G46C, G48U, G49A
B12: target 3 insC 3' of 20,insA 3' of 6 (mixed)
RNA 1: B1 RNA 1
RNA 2: B9 RNA 2 with G31U, U33C, G49A, U51G, A52U
B13: target 3 U2G,U10G (mixed)
RNA 1: B1 RNA 1
RNA 2: B1 RNA 2 with G34A, U42G, G46C, U50G
B14: target 3 insG 3' of 16,insU 3' of 3 (mixed)
RNA 1: B1 RNA 1
RNA 2: B3 RNA 2 with U37G, G38U, A39G, U42A, A43U
B15: target 3 insC 3' of 4,insC 3' of 3 (mixed)
RNA 1: B1 RNA 1
RNA 2: B3 RNA 2 with A44U, U46C, C47A, A48G, G49C, U51C
B16: target 3 insG 3' of 8,insC 3' of 5 (mixed)
RNA 1: B1 RNA 1
RNA 2: B3 RNA 2 with A44U, U45G, G49C, U51G
B17: target 3 U21A (mixed)
RNA 1: B1 RNA 1
RNA 2: B1 RNA 2 with U31A, G34A, G46C
B18: target 3 insC 3' of 7 (mixed)
RNA 1: B1 RNA 1
RNA 2: GGGAAUGGAUCCACAUCUACGAAUUCGUUUUUGAUCUGAAAUAUUCCAGGUCUGCAGAUCGGAAGAGCACACGU
B19: target 3 insA 3' of 19 (mixed)
RNA 1: B1 RNA 1
RNA 2: B18 RNA 2 with U35A, C36U, U37C, G38U, A39G, U42A, A43U, U44A, C46U
B20: target 3 U2A,G4U (mixed)
RNA 1: B1 RNA 1
RNA 2: B1 RNA 2 with G34A, G46C, G48U, U50A
B21: target 3 U2C,U7A (mixed)
RNA 1: B1 RNA 1
RNA 2: B1 RNA 2 with G34A, U45A, G46C, U50C
B22: target 3 insG 3' of 9,insU 3' of 3 (mixed)
RNA 1: B1 RNA 1
RNA 2: B3 RNA 2 with A44G
B23: target 3 insC 3' of 8,insA 3' of 6 (mixed)
RNA 1: B1 RNA 1
RNA 2: B3 RNA 2 with A44U, U45C, G49A, U51G
B24: target 3 G3A,G4A (mixed)
RNA 1: B1 RNA 1
RNA 2: B1 RNA 2 with G34A, G46C, G48A, G49A
B25: target 3 insG 3' of 8,insC 3' of 7 (mixed)
RNA 1: B1 RNA 1
RNA 2: B3 RNA 2 with A44U, U45G, A48C, G49A, U51G
B26: target 3 G3A,U22A (mixed)
RNA 1: B1 RNA 1
RNA 2: B1 RNA 2 with U30A, G34A, G46C, G49A
B27: target 3 insA 3' of 8,insG 3' of 6 (mixed)
RNA 1: B1 RNA 1
RNA 2: B3 RNA 2 with A44U, U45A, A48G, G49A, U51G
B28: target 3 insC 3' of 8,insG 3' of 5 (mixed)
RNA 1: B1 RNA 1
RNA 2: B3 RNA 2 with A44U, U45C, U51G
B29: target 3 insU 3' of 14,insG 3' of 5 (mixed)
RNA 1: B1 RNA 1
RNA 2: B3 RNA 2 with A39U, U42A, A43U, U51G
B30: target 1 insG 3' of 16,insG 3' of 9 (mixed)
RNA 1: CACCCGUGCAAAAAUGCAGGGGUCUAAAACUGAGCGGAUAACCUCUCUAUGG
RNA 2: GGGAAUGGAUCCACAUCUACGAAUUCGUACCAUAGAGGAGGUUAGUCCGCUCACCGAGAUCGGAAGAGCACACGU
B31: target 1 U8C,A18U (mixed)
RNA 1: B30 RNA 1
RNA 2: GGGAAUGGAUCCACAUCUACGAAUUCGUACCAUUGAGAGGUUACCCGCUCACCGAGAUCGGAAGAGCACACGU
B32: target 1 C2A,A14G (mixed)
RNA 1: B30 RNA 1
RNA 2: B31 RNA 2 with U34A, A38G, C44U, C50A
B33: target 1 C6A,A20C (mixed)
RNA 1: B30 RNA 1
RNA 2: B31 RNA 2 with A32C, U34A, C44U, C46A

Target: T1, EsCas13d, nuclease-dead
Test: crRNA (strand 1, pre-loaded); Mg2+; 40 mM Tris-HCl pH 7.5, 150 mM NaCl, 6 mM MgCl2, 1 mM DTT, 0.1% Tween-20, 0.2 mg/ml BSA; 25 C; 10 min per concentration, then washed
Settings: tags: His6-TwinStrep-SUMO cleaved; N-terminal SNAP kept (SNAP-Surface 488); label: 3' end held by stalled T7 RNA polymerase

Binder | Kd [nM]
B1 | 47 ± 9.5
B2 | 44.1 ± 3.35
B3 | 67.5 ± 17.5
B4 | 33.5 ± 2.95
B5 | 13.3 ± 1.4
B6 | 46 ± 11.5
B7 | 71 ± 14
B8 | 15.7 ± 1.25
B9 | 72 ± 21
B10 | 26.6 ± 4.1
B11 | 8.95 ± 0.95
B12 | 105 ± 43.5
B13 | ~105
B14 | ~71
B15 | 22.9 ± 2.65
B16 | 39 ± 4
B17 | 35.5 ± 4

Binder | Kd [nM]
B18 | 90.5 ± 20.5
B19 | 83 ± 21.5
B20 | 1.98 ± 0.2
B21 | 77 ± 23
B22 | 43.5 ± 7
B23 | 71 ± 10.5
B24 | 8.7 ± 0.75
B25 | 57 ± 9
B26 | 47 ± 10.5
B27 | 45.5 ± 4.5
B28 | 120 ± 50
B29 | 60.5 ± 19.5
B30 | 31 ± 4
B31 | 43 ± 4
B32 | 13.5 ± 0.5
B33 | 38 ± 4
